The supplement of paper PMC12636428

Tested on: Saccharomyces cerevisiae
Assay: transcriptional activation domain activity (GFP:mCherry ratio, weighted mean of sorted bins, harmonized to initial dataset scale) (arbitrary fluorescence ratio units); higher = stronger transcriptional activation
Conditions: beta-estradiol 1 µM; induction time 4 h
Outline: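 For this assay, yeast diploids with a GFP reporter carried barcoded protein tiles at URA3, each fused to an estradiol-inducible synthetic transcription factor. Induction was a 1:5 dilution into SC with 1 uM beta-estradiol for 4 hours at 30 °C, followed by sorting into 8 bins by GFP:mCherry ratio and barcode sequencing. Tiles under 50 reads were dropped, and activation activity was calculated as the read-weighted mean of bin median fluorescence, averaged across barcodes and linearly mapped onto the initial dataset scale.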

Sequence	transcriptional activation domain activity
LCILVYLSHVSYLTLLPRFDYLYNIIFNMVIGLSHNALWLVYSLPISAFRRFP	75800
LCKAIQFCVFLGFALAGYNFEPWHQLIVYETLCFVLFLSRVLLTIQYAVVLVY	61400
LCLERLFPPLMREIFCELGIASQVFQRIVFTAIYRRICGTGPHLAHLEAKALE	30100
LCLLHRWKEFNQPEDVKCAVEYLRHLRGLPLDTFEVSHKVVTILLVQVLGIQV	48900
LCLPFFLSLLPFFQSWRYVNISLLLFFYSSSIFSPSFPFIYYFTVFFLSFLLL	29900
LCLRLMIKVAFSGEDTEVDFSMLQVAVRYILGIHGVNTLAPAWTFWGKCLDSM	37000
LCMELVLHYIYVVAISNSSPDWSAYTPFQLSMLGYFNLHHIWLKLLIPWRFFR	63800
LCNVLRLYFYLLYFIFYRNLFARLRDVEQFAMIQIASSVWVTILYPMRMTRPV	72900
LCPLFPPCFLVLHHILGFLYPRFFLFVFSLVDCLLYFSLSFLVCVRFCLCLGL	78000
LCREVIIGGILGGILVFLVISLFFLIGHFFLFFVVLFLLLFNTTLCSLLVEVL	18900
LCRLWGAWGLFTFGLGVLLSAINMRMVLFYRVFITVNLTARSNSKIVNFFRKF	51100
LCRVQESILQTFGMTGLLCMQRGINFTIYCVLTCTVLHLVAITSPDPDLNRDA	40200
LCSWLIPRVLVLLGRKGCEKLMENIKALFDLFFQIIPQYPNFWCWESILLDYL	41800
LCTQLLVKILVFSAYRFSLTVLNLVSYLTIDARMVSIVVLGKSLFPLLVFVLL	41000
LCVDVWDGFFLSPLNLVAISFLIFLPFHCWVINAPLSILCLTSIMGFPSFLFF	70200
LCVFDLLVLTTTAFIQSGVYCAFDWTVSTIEVRGVCVLAVLIATIPIVFIAYA	31400
LCYQRMLLRVLLSFCDWIIKLESASQASKLGESMILARRSVDLLVIAIINVGT	40700
LDAVSSFNSSSVKSNFASKVNTQLNLLQHSSSNSNFLDASPYDFNKIFMNNFE	62000
LDDLKLQPIINRYRNCKGLSPSDLRLSLDQLKCLNHQFSVIILRILFKHCPLY	72900
LDFLDLWTFWPWTFWPWTFWTVGLFGLLALDLLALDFLDLWTFWPWTFWPWTF	60400
LDGSVDTSAPLDTGLFNSWMDIFQAFPFPAEGFTPDSFNDNYPIDPNQTFLTI	141000
LDHRVGIEKLYVSLFFLSTALLIIIEQYFPSLKSRGVLNFLWKLLYLPLLRLV	43000
LDIGHWMSSYNLLRRQSTKRYMIIMDLTRRFNTRTPNLLYLIQWGFVWGVSYY	57900
LDKKSGRLIKHSLCFTYKDLELLTRFFKEDHVIHPTIKAYVLAACTVLFHLLL	62500
LDKVADPDYHPAVENSDVEEVMAAWRKTVREEALGVVEAGGGNVPGRGRVEVK	48000

Sequence	transcriptional activation domain activity
LDLEHLFGIDIEQRFQSYVMTQQAWLMPYLARIYYSHISLGVCFLVYIYTFLP	44100
LDRTVEAFRHADALRDVHLYGMVFSYFKMPLWQLTRFSGDIIGLNEYLLLFYN	38000
LDSYPNVLTFAVYTYLRLIPEHRHIQLATLQQREIRFVVSMLRQKWNLCAVIG	30100
LECVRFAIMTHTVDLLQKVLWSQVDHILSRLPSIRTVKFRFFMDSSLWKKAAI	41900
LEDNAAPASAPAAEEKPVEKAPEEKPEKKEEPQKEEPKKEDAKQAAPKSGASQ	46100
LEEAEDGGGALADGEIEVRVAATGVTVDDARAAAGLRAGYTVGTECSGTVARV	11500
LEEIHILERLYYKSKNQHHASLFWRKLTEIRRVTTRLLKFNVTETVASIPLAF	59200
LEEYYWKTLNFTTPMYGADTPGSIFPEGLNVWNVAKLPNILDHMETKVPGVND	88300
LEGGRVIQRGRHNVATDVVGCFYDAFCTLLPQMIIVRVTRGKAWDSRVIYPTE	66400
LEGPPLEKTGSDILQQVCNVLPSFEQSSKIITDFFNTELETNEVSEVLDKTKI	49900
LEHVVLLLYCISAVVLQTRYGSVPIGWIEERPITIGFTMAFSGALRDCLMYAA	56400
LELNWAIGGGDLKHRMNKLREFLEEGRRVEVLLGPKKRGRKATPEEAQGVVKA	34200
LELPDNLDNADFSKLLEFDAKNDEALFNSNELLSHTMDPVNNIDLTHDHSREV	93000
LELQHFLLSFAHFPLLVWVFSWVLVFGFNWFLSIYGVLELFFLFCSHCWIAWS	63900
LEMLSYGAGVHHAINILFTDGIFWVWYYDRQGILQSKGVSIFKDLPRFLLLLF	52200
LENTNNNGSNVNAATNDTSASTNNINNNNAICQSASLLNDPLETLDFTKCIFA	46900
LEQHPKDRVKFSTPELVPLDLKNPELDSSFDLNMNLDLNLNLDSNFNIALNRS	97100
LESTHSLLALLNFIAFLCDGRFRTIADRLLNVRLIPSRRLVKRDVSYEFMNRQ	46300
LETGSFQNYYQKMDAENADRVYSKGVKLIASGTLPSGIFNREELFEEDSFYKY	68400
LEVTQRGITPANTDYNSNPIDKCLVSDSFNESTTNLLRSLLHCLRILALTYHA	36600
LFALAMLLLFCFIGLLVSGLHFGHRVYSDDCLGQSWIMFSSILGFLYIGLHVQ	32600
LFASMIPSMRDLIVIVLTLPNHATVIELQHYALEIAEQLTRFWFLRAENPLYR	62600
LFATLLKLRVDQLLIMMDPTDLIRSILLSNENHQVLSALDFCWTLMHSVFPLL	78100
LFCALMPIRFYTYFKQSFQYYLADLCYYVNLLLLIFLWVLPTSCSLFISVFSL	78400
LFCFLHYNLLPLPLLLYHLLLAHHILLQLNLDPFLPLLPLLPFLPLLFLLCHL	36000

Sequence	transcriptional activation domain activity
LFCLPDTAACGAMHAWRSWATSFLLFSFFAAICGQFFSLLFSYLLLFLCYWVI	42900
LFEIDQRLGLLVPRNGINTSLVILKVIAKLLEKASIYNHFTLGIVWLRKSILV	49900
LFFHILFPFFFFFQFLFSLFFFSFFFHSFFFLYFLFFPGGFFFQFCCFFFPSF	44800
LFFIAVSQLGFVCSYLVFISGNLVNVVDVLSSCAAHLDQKYYIWIPLILVLPL	59900
LFFLLLPLLLHVIRIKSNMASSWVMVPLDFQPRHLIPLVENSHCLRNLQIFWL	71300
LFFLSFFLGLFLFFFSLSLLLVPSSFFFLVFCLFLSFFFILSFFPRFLFFFFF	39700
LFFLSFLFFPFLSFLSFLFLFSFLFFPSFLFFPSLFLFLFSSPFHPIPFLFSS	57800
LFFSSFLYFSLSLGAPGNYFFDVTFFFIPYPPLCIASYSLGFFFFFSFFFFFS	70900
LFFYFFIFLFFYFFILLFYYFIILLFYYLFFFFATVLILILLFFFFFFTYQRT	47600
LFGCVVSNVNGSSYLGLVYVIFMLYEGGLLLAMIKWRISTWIIYYICAFCLSL	59600
LFGLFGPLDLWTFWTFGLFGLFGLFGLFGLFGLGLFGLLDFLDFWPWTFWPWI	57700
LFGPLDFLDFLDFLDFLDFLDFLDFLDFLDLWTFWPWTFWTVGLFGLLDFLTF	46300
LFHSVVSIYRLLFFFSVDHSAGVRFFFCFLFLPSLIFCIAFPISIISGFLVFF	49600
LFHSYFSFLLLFFFFFFFYFLPFFFFLPSLLPHFLLFSFYFPFISPFLSTSFS	58800
LFHVDLDKMYLMMITLCITWIHACLNVYQIHLLSLLNQWNVISSCLGLLVIVL	41900
LFICRYTSDGQFIGNQNGCYNLVPVYDWIKRCVISIFVVFFIAFLPLFLQELC	56900
LFINRLMWLVRSYLTTFFCKSCPGLAKKLIKYVTIQQLPPDVSWDPHFKPRYN	67600
LFLAGILRWGSRIVLVLFLLLLFRLSLLFCLGHLFFAYSLSTLGILLLLMIFF	31600
LFLFFLFVFCAYPFWLVRCFLLALLLSLKDLVQIFLFLITTLCCDISEMWSFV	42800
LFLFIFLVAESYLGFSCWVLYSNVPLYAHVADLAGTKKPFVLPVPFMNVINGG	48000
LFLFLCLFSPPINNPPFSSLIGEFLPLILSSWFYSFLISVWWNRWEKAFSWWL	33800
LFLFLFLIFFSFLKCTFTYIFVPRFRFSLFSHSGPAVSLVYILGLLGYWGVNV	55100
LFLFYACVNMIFWRVFMRISYSCPAHLKFFLTVEKWTELVKMTADAIDWLDAH	47800
LFLKIYMLNPLHMTRFADLLYQGAILNRVFQPYESHLQYLLQWMCDYNLYGCA	65100
